Positions count from the first letter of the chain named. Names may count otherwise. “And” between values parts separate entries of the source, which are not always exact repeats. Equal values may be shown once.

The target of one assay is CXCR1 (UniProt P25024). In words: cell-based or functional assay.
The next assay addresses Kv1.3 (human) (UniProt P22001). In words: cell-based or functional assay.

Chain of CXCR1 (P25024 whole entry): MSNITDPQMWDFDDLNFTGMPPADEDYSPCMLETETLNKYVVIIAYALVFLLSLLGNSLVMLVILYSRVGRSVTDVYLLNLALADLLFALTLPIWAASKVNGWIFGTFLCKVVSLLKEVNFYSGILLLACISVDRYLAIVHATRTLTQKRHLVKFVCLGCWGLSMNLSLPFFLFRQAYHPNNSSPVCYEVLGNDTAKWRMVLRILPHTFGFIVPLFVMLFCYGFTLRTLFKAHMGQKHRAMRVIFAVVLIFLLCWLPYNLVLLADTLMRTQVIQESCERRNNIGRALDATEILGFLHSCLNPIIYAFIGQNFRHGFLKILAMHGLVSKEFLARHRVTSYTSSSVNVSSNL
Chain of Kv1.3 (human) (P22001 whole entry): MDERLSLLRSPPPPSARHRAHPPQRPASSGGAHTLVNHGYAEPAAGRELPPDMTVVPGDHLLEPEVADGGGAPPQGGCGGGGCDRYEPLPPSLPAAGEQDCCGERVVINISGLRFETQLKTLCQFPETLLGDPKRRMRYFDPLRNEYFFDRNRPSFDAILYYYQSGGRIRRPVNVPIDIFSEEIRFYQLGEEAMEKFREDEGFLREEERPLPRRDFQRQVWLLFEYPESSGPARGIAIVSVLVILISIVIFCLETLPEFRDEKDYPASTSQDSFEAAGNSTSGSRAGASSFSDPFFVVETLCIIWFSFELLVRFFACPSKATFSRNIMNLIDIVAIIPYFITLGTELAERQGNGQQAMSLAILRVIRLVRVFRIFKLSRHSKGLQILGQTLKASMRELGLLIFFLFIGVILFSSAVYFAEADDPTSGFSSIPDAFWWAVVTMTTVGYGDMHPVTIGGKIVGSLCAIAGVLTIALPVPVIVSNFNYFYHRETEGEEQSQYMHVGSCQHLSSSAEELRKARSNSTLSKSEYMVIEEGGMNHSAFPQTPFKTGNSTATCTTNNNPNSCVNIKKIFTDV

B1: VH4-34+CDR3-IL8_CDR1-Cow_Q5RQ6E with VL1-51 S2A, T5N, P8S, A12G, A13S, P14L, K46R, L47T, D51G, N52D, N53T (antibody)
VH: QVQLREWGAGLLKPSETLSLTCTASGFSLSDKAVGWIRQPPGKGLEWIGEINHSGSTNYNPSLKSRVTISVDTSKNQFSLKLSSVTAADTAVYYCTSVHQETKKYQSPRSAKELRCQCIKTYSKPFHPKFIKELRVIESGPHCANTEIIVKLSDGRELCLDPKENWVQRVVEKFLKRAENSGSGSYTYNYEWHVDVWGQGLLVTVSS
light: QAVLNQPSSVSGSLGQKVTISCSGSSSNIGNNYVSWYQQLPGTAPRTLIYGDTKRPSGIPDRFSGSKSGTSATLGITGLQTGDEADYYCASAEDSSSNAVFGSGTTLTVLGQPKAAPSVTLFPPSSEELQANKATLVCLISDFYPGAVTVAWKADSSPVKAGVETTTPSKQSNNKYAASSYLSLTPEQWKSHRSYSCQVTHEGSTVEKTVAPTECS
In the assay with CXCR1, B1 showed a luminescence at 0.1 nM IL-8 domains of 4180, a luminescence at 0.4 nM IL-8 domains of 5190, a luminescence at 0.5 nM IL-8 domains of 6620 and a luminescence at 1.6 nM IL-8 domains of 6410. In the assay with CXCR1, this molecule registered a luminescence at 2.2 nM IL-8 domains of 13500, a luminescence at 6.25 nM IL-8 domains of 10500, a luminescence at 9.9 nM IL-8 domains of 21900 and a luminescence at 25 nM IL-8 domains of 14600. In the assay with CXCR1, the luminescence at 44 nM IL-8 domains came to 24000, the luminescence at 100 nM IL-8 domains turned out to be 18000 and the luminescence at 200 nM IL-8 domains is 25000.

B2: VH4-34+CDR3-IL8_CDR1-Cow_CDR2-Cow with VL1-51 S2A, T5N, P8S, A12G, A13S, P14L, K46R, L47T, D51G, N52D, N53T (antibody)
VH: QVQLQQWGAGLLKPSETLSLTCTASGFSLSDKAVGWIRQPPGKGLEWLGSIDTGGNTGYNPSLKSRVTISVDTSKNQFSLKLSSVTAADTAVYYCTSVHQETKKYQSPRSAKELRCQCIKTYSKPFHPKFIKELRVIESGPHCANTEIIVKLSDGRELCLDPKENWVQRVVEKFLKRAENSGSGSYTYNYEWHVDVWGQGLLVTVSSAS
light: B1 light
In the assay with CXCR1, B2 yielded a luminescence at 0.4 nM IL-8 domains of 6310, a luminescence at 1.6 nM IL-8 domains of 7400, a luminescence at 6.25 nM IL-8 domains of 10200 and a luminescence at 25 nM IL-8 domains of 15400. For the same molecule, the luminescence at 100 nM IL-8 domains in the assay with CXCR1 came to 21600.

B3: VH4-34+CDR3-IL8_CDR1-G31DY32K_CDR2-E50S with VL1-51 S2A, T5N, P8S, A12G, A13S, P14L, K46R, L47T, D51G, N52D, N53T (antibody)
VH: QVQLQQWGAGLLKPSETLSLTCAVYGGSFSDKYWSWIRQPPGKGLEWIGSINHSGSTNYNPSLKSRVTISVDTSKNQFSLKLSSVTAADTAVYYCTSVHQETKKYQSPRSAKELRCQCIKTYSKPFHPKFIKELRVIESGPHCANTEIIVKLSDGRELCLDPKENWVQRVVEKFLKRAENSGSGSYTYNYEWHVDVWGQGLLVTVSSAS
light: B1 light
In the assay with CXCR1, B3 showed a luminescence at 0.4 nM IL-8 domains of 5420, a luminescence at 1.6 nM IL-8 domains of 5710, a luminescence at 6.25 nM IL-8 domains of 7160 and a luminescence at 25 nM IL-8 domains of 11200. In addition, the luminescence at 100 nM IL-8 domains in the assay with CXCR1 was 15500.

B4: VH4-34+CDR3-IL8_CDR1-G31DY32K_CDR2-E50S_Q5RQ6E with VL1-51 S2A, T5N, P8S, A12G, A13S, P14L, K46R, L47T, D51G, N52D, N53T (antibody)
VH: B1 VH with T23A, A24V, S25Y, F27G, L29F, A33Y, V34W, G35S, E50S
light: B1 light
In the assay with CXCR1, B4 returned a luminescence at 0.1 nM IL-8 domains of 4060, a luminescence at 0.4 nM IL-8 domains of 6190, a luminescence at 0.5 nM IL-8 domains of 5300 and a luminescence at 1.6 nM IL-8 domains of 8160. For the same molecule, in the assay with CXCR1, the luminescence at 2.2 nM IL-8 domains was determined as 10300, the luminescence at 6.25 nM IL-8 domains is 13500, the luminescence at 9.9 nM IL-8 domains is 17100 and the luminescence at 25 nM IL-8 domains amounted to 21000. Moreover, in the assay with CXCR1, the luminescence at 44 nM IL-8 domains came to 23300, the luminescence at 100 nM IL-8 domains turned out to be 25900 and the luminescence at 200 nM IL-8 domains was determined as 22300.

B5: VH4-34 MutE 3xGGS NoKnob IgG (antibody, V domains shown)
VH: QVQLREWGAGLLKPSETLSLTCAVYGGSFSDKYWSWIRQPPGKGLEWIGSINHSGSTNYNPSLKSRVTISVDTSKNQFSLKLSSVTAADTAVYYCTSVHQETKKYQSGGSGGSGGSSYTYNYEWHVDVWGQGLLVTVSS
VL: QAVLNQPSSVSGSLGQKVTISCSGSSSNIGNNYVSWYQQLPGTAPRTLIYGDTKRPSGIPDRFSGSKSGTSATLGITGLQTGDEADYYCASAEDSSSNAVFGSGTTLTVLG
In the case of B5, in the assay with Kv1.3 (human), the IL-2 ELISA (A450), Donor 1, [IgG] 0.01 nM was 2.18 A450 and 2.23 A450; the IL-2 ELISA (A450), Donor 1, [IgG] 0.75 nM was 2.19 A450 and 2.17 A450; the IL-2 ELISA (A450), Donor 1, [IgG] 68 nM is 1.42 A450 and 1.31 A450; the IL-2 ELISA (A450), Donor 2, [IgG] 0.01 nM is 1.75 A450. Further, in the assay with Kv1.3 (human), the IL-2 ELISA (A450), Donor 2, [IgG] 0.75 nM is 1.61 A450 and 1.42 A450; the IL-2 ELISA (A450), Donor 2, [IgG] 68 nM was 1.32 A450 and 0.934 A450; the IL-17 ELISA (A450), Donor 1, 0.00 nM IgG is 0 A450; the IL-17 ELISA (A450), Donor 1, 0.02 nM IgG came to 1.35 A450. In the assay with Kv1.3 (human), the IL-17 ELISA (A450), Donor 1, 0.08 nM IgG was 1.34 A450; the IL-17 ELISA (A450), Donor 1, 0.34 nM IgG came to 1.27 A450; the IL-17 ELISA (A450), Donor 1, 1.54 nM IgG came out at 1.18 A450; the IL-17 ELISA (A450), Donor 1, 6.9 nM IgG was determined as 0.828 A450. For the same molecule, in the assay with Kv1.3 (human), the IL-17 ELISA (A450), Donor 1, 31 nM IgG is 0.453 A450; the IL-17 ELISA (A450), Donor 1, 140 nM IgG is 0.247 A450; the IL-17 ELISA (A450), Donor 2, 0.00 nM IgG was found to be 0 A450; the IL-17 ELISA (A450), Donor 2, 0.02 nM IgG stood at 0.959 A450. In the assay with Kv1.3 (human), this molecule returned an IL-17 ELISA (A450), Donor 2, 0.08 nM IgG of 0.777 A450; an IL-17 ELISA (A450), Donor 2, 0.34 nM IgG of 0.82 A450; an IL-17 ELISA (A450), Donor 2, 1.54 nM IgG of 0.785 A450; an IL-17 ELISA (A450), Donor 2, 6.9 nM IgG of 0.641 A450. In the assay with Kv1.3 (human), the IL-17 ELISA (A450), Donor 2, 31 nM IgG was 0.364 A450; the IL-17 ELISA (A450), Donor 2, 140 nM IgG is 0.096 A450; the TNF-α ELISA (A450), Donor 1, 0.00 nM IgG stood at 0 A450; the TNF-α ELISA (A450), Donor 1, 0.02 nM IgG worked out at 1.52 A450. Further, in the assay with Kv1.3 (human), the TNF-α ELISA (A450), Donor 1, 0.08 nM IgG was 1.45 A450; the TNF-α ELISA (A450), Donor 1, 0.34 nM IgG is 1.42 A450; the TNF-α ELISA (A450), Donor 1, 1.54 nM IgG was found to be 1.33 A450; the TNF-α ELISA (A450), Donor 1, 6.9 nM IgG is 1.1 A450. In the assay with Kv1.3 (human), the TNF-α ELISA (A450), Donor 1, 31 nM IgG is 0.808 A450; the TNF-α ELISA (A450), Donor 1, 140 nM IgG turned out to be 0.402 A450; the TNF-α ELISA (A450), Donor 1, [IgG] 0.01 nM was 1.91 A450 and 1.88 A450; the TNF-α ELISA (A450), Donor 1, [IgG] 0.75 nM is 1.76 A450 and 1.67 A450. Besides, in the assay with Kv1.3 (human), the TNF-α ELISA (A450), Donor 1, [IgG] 68 nM was 1.12 A450 and 1.08 A450; the TNF-α ELISA (A450), Donor 2, 0.00 nM IgG was determined as 0 A450; the TNF-α ELISA (A450), Donor 2, 0.02 nM IgG was found to be 1.56 A450; the TNF-α ELISA (A450), Donor 2, 0.08 nM IgG turned out to be 1.42 A450. Further, in the assay with Kv1.3 (human), the TNF-α ELISA (A450), Donor 2, 0.34 nM IgG was 1.55 A450; the TNF-α ELISA (A450), Donor 2, 1.54 nM IgG stood at 1.29 A450; the TNF-α ELISA (A450), Donor 2, 6.9 nM IgG was 0.916 A450; the TNF-α ELISA (A450), Donor 2, 31 nM IgG came out at 0.438 A450. For the same molecule, in the assay with Kv1.3 (human), the TNF-α ELISA (A450), Donor 2, 140 nM IgG was 0.167 A450; the TNF-α ELISA (A450), Donor 2, [IgG] 0.01 nM is 2.23 A450 and 2.1 A450; the TNF-α ELISA (A450), Donor 2, [IgG] 0.75 nM is 2.1 A450 and 1.88 A450; the TNF-α ELISA (A450), Donor 2, [IgG] 68 nM was 1.8 A450 and 1.32 A450.

B6: VH4-34 MutE 3xGGS NoKnob (antibody, V domains shown)
VH: B5 VH
VL: B5 VL
In the assay with Kv1.3 (human), B6 yielded an IL-2 ELISA (A450); Donor 1; 0.04 nM IgG of 0.333 A450, an IL-2 ELISA (A450); Donor 1; 0.6 nM IgG of 0.356 A450, an IL-2 ELISA (A450); Donor 1; 9.4 nM IgG of 0.371 A450 and an IL-2 ELISA (A450); Donor 1; 150 nM IgG of 0.232 A450. In the assay with Kv1.3 (human), this molecule showed an IL-2 ELISA (A450); Donor 2; 0.04 nM IgG of 0.976 A450, an IL-2 ELISA (A450); Donor 2; 0.6 nM IgG of 0.795 A450, an IL-2 ELISA (A450); Donor 2; 9.4 nM IgG of 0.808 A450 and an IL-2 ELISA (A450); Donor 2; 150 nM IgG of 0.475 A450. In the assay with Kv1.3 (human), this molecule showed a TNF-α ELISA (A450); Donor 1; 0.04 nM IgG of 0.76 A450, a TNF-α ELISA (A450); Donor 1; 0.6 nM IgG of 0.813 A450, a TNF-α ELISA (A450); Donor 1; 9.4 nM IgG of 0.821 A450 and a TNF-α ELISA (A450); Donor 1; 150 nM IgG of 0.599 A450. In the assay with Kv1.3 (human), the TNF-α ELISA (A450); Donor 2; 0.04 nM IgG came to 0.736 A450, the TNF-α ELISA (A450); Donor 2; 0.6 nM IgG amounted to 0.631 A450, the TNF-α ELISA (A450); Donor 2; 9.4 nM IgG turned out to be 0.622 A450 and the TNF-α ELISA (A450); Donor 2; 150 nM IgG stood at 0.366 A450.

The record behind these values is US20160159928A1.
